Reference: article PMC9064986

Target: Recombinant human BMP10 growth factor (GF)-domain (R&D Systems) (UniProt O95393)
Experiment: SPR (Biacore)
Details: BMP10 immobilised on a CM5 Biacore chip; parent: 1.35E+05 M-1s-1

Recombinant human BMP10 growth factor (GF)-domain (R&D Systems), sequence (O95393 317-424): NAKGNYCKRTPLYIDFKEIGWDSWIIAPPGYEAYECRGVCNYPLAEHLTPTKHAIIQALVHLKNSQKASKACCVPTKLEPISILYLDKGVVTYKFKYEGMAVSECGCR

kon: 49600 M⁻¹ s⁻¹
Substance: BMPRII extracellular domain (ECD), wild type (from UniProt Q13873-1) ΔGDP (del of Gly, Asp and Pro in the A-loop)
